Where no end group is shown, it is not given here.
Tests used:
[1] = molecular target: coagulation factor II thrombin receptor/protease activated receptor 1 (F2R/PAR1) (human (endogenous in ES-2)) (UniProt P25116)
[2] = molecular target: coagulation factor II thrombin receptor/protease activated receptor 1 (F2R/PAR1) (human (endogenous in ES-2)) (UniProt P25116); remark: listed apart in the source

Sequence of UniProt P25116 (P25116 42-425): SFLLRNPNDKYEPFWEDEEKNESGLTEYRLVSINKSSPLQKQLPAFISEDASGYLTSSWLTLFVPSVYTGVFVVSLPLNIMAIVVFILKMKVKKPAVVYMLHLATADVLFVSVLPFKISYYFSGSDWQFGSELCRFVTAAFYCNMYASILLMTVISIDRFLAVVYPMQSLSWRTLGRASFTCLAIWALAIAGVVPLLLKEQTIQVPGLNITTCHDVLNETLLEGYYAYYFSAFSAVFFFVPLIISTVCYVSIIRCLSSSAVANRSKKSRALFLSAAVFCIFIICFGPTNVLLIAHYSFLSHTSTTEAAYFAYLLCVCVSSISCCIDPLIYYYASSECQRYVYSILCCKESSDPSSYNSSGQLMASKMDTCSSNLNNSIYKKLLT

cellular uptake: DOX fluorescence (MFI per cell) of ES-2 cells by flow cytometry after 1 h at 37 °C, about 86 µM drug; LNP-DOX without peptide approximately 2000 [2]: 6000 MFI
Binder: TFLLRGSGSGSC(DSPE‑PEG2000‑maleimide) (also: on doxorubicin-loaded lipid nanoparticles) [… conjugated to DSPE-PEG-maleimide, on doxorubicin-loaded lipid nanoparticles (LNP-Peptide-DOX)]
cytotoxicity on ES-2 cells, MTT assay, 24 h; IC50 as DOX concentration; LNP-DOX without peptide 10.16 µM, free DOX 0.6 µM [1]: 1.26 µM

Source: PMC12835398
